Test results from paper PMC8610991, “The encapsulin from Thermotoga maritima is a flavoprotein with a symmetry matched ferritin-like cargo protein” (Scientific Reports, 2021).
“And” between values parts separate entries of the source, which are not always exact repeats. Equal values may be shown once.

Experiments:
[1] = biological target: T1, T. maritima encapsulin (Thermotoga maritima, UniProt Q9WZP2); experiment: LC-MS of flavin released from purified encapsulin; assay type: binding; settings: co-purified minor species; exact flavin composition not determined
T1 construct: gene enc; encapsulin shell, codon-optimised gene in pET14, E. coli BL21(DE3), co-expressed with His6-tagged FLP cargo (sub-stoichiometric loading); T = 1 icosahedral shell of 12 pentamers; flavin site between two shell subunits; with Encapsulated ferritin-like protein (FLP cargo)
T1 sequence (Q9WZP2 whole entry): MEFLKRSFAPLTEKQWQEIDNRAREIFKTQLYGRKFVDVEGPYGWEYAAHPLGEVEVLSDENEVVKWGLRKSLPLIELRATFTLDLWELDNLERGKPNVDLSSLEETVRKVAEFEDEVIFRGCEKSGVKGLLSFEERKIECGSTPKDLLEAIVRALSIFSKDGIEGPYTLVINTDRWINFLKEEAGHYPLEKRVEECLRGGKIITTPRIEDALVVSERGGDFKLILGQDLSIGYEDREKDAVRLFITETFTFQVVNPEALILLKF

[2] = biological target: T1, T. maritima encapsulin; experiment: cryo-EM structure […] A; absorbance, LC-MS of released flavin; assay type: binding; settings: co-purified flavin; pi-stacking with W90 between two shell subunits; fluorescence quenched until denatured
[3] = biological target: the molecule itself; experiment: cryo-EM structure; FLP-loaded encapsulin, co-expressed in E. coli and purified as a complex; 2 mg/mL, 0.05% NP-40; 2D classes, I1 reconstruction of the shell (3.3 Å), C1 reconstruction, symmetry expansion and focused classification of the FLP at a pentameric vertex (shell ~3.5 Å, FLP ~7 Å)
[4] = biological target: Thermotoga maritima encapsulin shell protein (Thermotoga maritima) (UniProt Q9WZP2); experiment: as above

Cc1cc2nc3c(=O)[nH]c(=O)nc-3n(C[C@H](O)[C@H](O)[C@H](O)CO)c2cc1C [riboflavin]
LC-MS of flavin released from purified encapsulin [1]: Both FMN and riboflavin were present as the major and minor peaks respectively

Cc1cc2nc3c(=O)[nH]c(=O)nc-3n(C[C@H](O)[C@H](O)[C@H](O)COP(=O)(O)O)c2cc1C [FMN, flavin mononucleotide]
cryo-EM structure 3.3 A; absorbance, LC-MS of released flavin [2]: additional density near W90 that corresponds to a flavin undergoing π–stacking with the tryptophan

B1: Thermotoga maritima ferritin-like protein (FLP) cargo (natural protein, UniProt Q9WZP3 1-114, looked up)
chain: MADQYHEPVSELTGKDRDFVRALNSLKEEIEAVAWYHQRVVTTKDETVRKILEHNRDEEMEHAAMLLEWLRRNMPGWDEALRTYLFTDKPITEIEEETSGGSENTGGDLGIRKL
notes: ferritin-like protein, native cargo of the Thermotoga maritima encapsulin; Decamer with fivefold symmetry; The map of the cargo (EMD-24002) has no atomic model of its own; a homologous FLP crystal structure (PDB 5DA5) was docked as a rigid body; also called cargo protein; ferritin-like cargo protein; copies: 10
stoichiometry N [3]: 10 | stoichiometry N [4]: 3 FLPs/shell and 5 FLPs/shell and 4 FLPs/shell | stoichiometry N (FLPs per encapsulin) [4]: 2
